Results from the Immune Epitope Database (IEDB).

Experiments:
[1] = target: HLA-A*24:03; test: IEDB peptide-MHC binding, purified MHC/direct/fluorescence; filed as Kd, often an IC50 or EC50 that approximates it; ≥ and ≤ were set here for values at or beyond the usual limits of such assays
[2] = target: HLA-B*27:05; test: as above
[3] = target: HLA-B*40:01; test: as above
[4] = target: HLA-A*69:01; test: as above
[5] = target: HLA-A*03:01; test: as above
[6] = target: HLA-B*44:02; test: as above
[7] = target: HLA-B*35:01; test: as above
[8] = target: HLA-B*15:01; test: as above
[9] = target: HLA-B*08:01; test: as above
[10] = target: HLA-B*07:02; test: as above
[11] = target: HLA-A*01:01; test: as above
[12] = target: HLA-A*31:01; test: as above
[13] = target: HLA-A*02:01; test: as above
[14] = target: HLA-A*26:01; test: as above
[15] = target: HLA-A*11:01; test: as above
[16] = target: HLA-B*58:01; test: as above
[17] = target: HLA-B*46:01; test: as above
[18] = target: HLA-C*14:02; test: as above; conditions: source organism: Azotobacter vinelandii DJ
[19] = target: HLA-A*30:01; test: as above
[20] = target: HLA-B*48:01; test: as above
[21] = target: HLA-B*51:01; test: as above; conditions: source organism: Vibrio parahaemolyticus AQ3810
[22] = target: HLA-B*18:01; test: as above
[23] = target: HLA-B*08:02; test: as above
[24] = target: HLA-A*29:02; test: as above; conditions: source organism: Vibrio parahaemolyticus AQ3810
[25] = target: HLA-A*02:03; test: IEDB peptide-MHC binding, purified MHC/competitive/fluorescence; filed as Kd, often an IC50 or EC50 that approximates it; ≥ and ≤ were set here for values at or beyond the usual limits of such assays; conditions: source organism: Vibrio antiquarius
[26] = target: HLA-B*57:01; test: as above; conditions: source organism: Vibrio antiquarius
[27] = target: HLA-B*15:17; test: as above; conditions: source organism: Vibrio antiquarius
[28] = target: HLA-A*02:06; test: as above; conditions: source organism: Vibrio antiquarius
[29] = target: HLA-B*15:01; test: as above; conditions: source organism: Vibrio antiquarius
[30] = target: HLA-A*02:01; test: as above; conditions: source organism: Vibrio antiquarius
[31] = target: HLA-A*11:01; test: as above; conditions: source organism: Vibrio antiquarius
[32] = target: HLA-A*29:02; test: as above
[33] = target: HLA-C*15:02; test: IEDB peptide-MHC binding, purified MHC/direct/fluorescence; filed as Kd, often an IC50 or EC50 that approximates it; ≥ and ≤ were set here for values at or beyond the usual limits of such assays; conditions: source organism: Cryptosporidium parvum Iowa II
[34] = target: HLA-B*46:01; test: IEDB peptide-MHC binding, purified MHC/competitive/fluorescence; filed as Kd, often an IC50 or EC50 that approximates it; ≥ and ≤ were set here for values at or beyond the usual limits of such assays; conditions: source organism: Psychromonas sp. PRT-SC03
[35] = target: HLA-A*26:02; test: IEDB peptide-MHC binding, purified MHC/direct/fluorescence; filed as Kd, often an IC50 or EC50 that approximates it; ≥ and ≤ were set here for values at or beyond the usual limits of such assays; conditions: source organism: Coxiella burnetii Q321
[36] = target: HLA-B*57:01; test: as above; conditions: source organism: Coxiella burnetii
[37] = target: HLA-B*15:17; test: as above; conditions: source organism: Coxiella burnetii
[38] = target: HLA-A*68:02; test: as above; conditions: source organism: Coxiella burnetii
[39] = source organism: Escherichia coli O157:H7
[40] = source organism: Burkholderia mallei ATCC 23344
[41] = source organism: Burkholderia mallei
[42] = source organism: Giardia lamblia ATCC 50803
[43] = source organism: Ectopseudomonas mendocina
[44] = source organism: Pseudomonas aeruginosa
[45] = source organism: Vibrio parahaemolyticus
[46] = source organism: Vibrio parahaemolyticus AQ3810
[47] = source organism: Enterobacteria phage f1
[48] = source organism: Coxiella burnetii
[49] = source organism: Coxiella burnetii Q321

ADLRFASEF
Kd [1, 39]: ≥ 20 µM | Kd [2, 39]: ≥ 20 µM | Kd [3, 39]: ≥ 20 µM | Kd [4, 39]: ≥ 20 µM | Kd [5, 39]: ≥ 20 µM | Kd [6, 39]: ≥ 20 µM | Kd [7, 39]: 0.937 µM | Kd [8, 39]: 0.93 µM | Kd [9, 39]: 3.84 µM | Kd [10, 39]: 11.7 µM | Kd [11, 39]: ≥ 20 µM | Kd [12, 39]: ≥ 20 µM | Kd [13, 39]: ≥ 20 µM | Kd [14, 39]: ≥ 20 µM | Kd [15, 39]: ≥ 20 µM | Kd [16, 39]: ≥ 20 µM

AMYAPYGPF
Kd [7, 40]: 1.88 µM | Kd [8, 41]: ≤ 0.001 µM | Kd [17, 41]: 0.958 µM | Kd [10, 40]: 9 µM | Kd [18]: 0.039 µM

CYPRLWGVR
Kd [2, 42]: ≥ 20 µM | Kd [3, 42]: ≥ 20 µM | Kd [4, 42]: ≥ 20 µM | Kd [5, 42]: ≥ 20 µM | Kd [6, 42]: ≥ 20 µM | Kd [8, 42]: ≥ 20 µM | Kd [19, 42]: 5.83 µM | Kd [9, 42]: ≥ 20 µM | Kd [10, 42]: 9.36 µM | Kd [11, 42]: ≥ 20 µM | Kd [13, 42]: ≥ 20 µM | Kd [14, 42]: ≥ 20 µM | Kd [15, 42]: ≥ 10 µM | Kd [16, 42]: ≥ 20 µM

EFDNYRGTI
Kd [2, 42]: ≥ 20 µM | Kd [3, 42]: 16.5 µM | Kd [4, 42]: ≥ 20 µM | Kd [5, 42]: ≥ 20 µM | Kd [6, 42]: ≥ 20 µM | Kd [8, 42]: ≥ 20 µM | Kd [19, 42]: 7.45 µM | Kd [9, 42]: ≥ 20 µM | Kd [10, 42]: ≥ 20 µM | Kd [11, 42]: ≥ 20 µM | Kd [12, 42]: ≥ 20 µM | Kd [13, 42]: ≥ 20 µM | Kd [14, 42]: ≥ 20 µM | Kd [15, 42]: ≥ 20 µM | Kd [16, 42]: ≥ 20 µM

FSDARLAKL
Kd [1, 43]: ≥ 20 µM | Kd [2, 43]: ≥ 20 µM | Kd [3, 44]: 8.72 µM | Kd [4, 43]: ≥ 20 µM | Kd [5, 43]: ≥ 20 µM | Kd [7, 44]: 0.797 µM | Kd [8, 43]: ≥ 20 µM | Kd [9, 44]: 5.3 µM | Kd [10, 44]: 7.92 µM | Kd [11, 44]: 7.32 µM | Kd [12, 43]: ≥ 20 µM | Kd [13, 44]: 18 µM | Kd [14, 43]: ≥ 20 µM | Kd [15, 43]: ≥ 20 µM | Kd [16, 43]: ≥ 20 µM

LVAPHMAMM
Kd [20, 45]: ≥ 20 µM | Kd [2, 45]: ≥ 20 µM | Kd [21]: ≥ 20 µM | Kd [3, 45]: ≥ 20 µM | Kd [5, 45]: ≥ 20 µM | Kd [17, 45]: 11 µM | Kd [19, 46]: ≥ 20 µM | Kd [11, 45]: ≥ 20 µM | Kd [12, 45]: ≥ 20 µM | Kd [22, 45]: ≥ 20 µM | Kd [23, 46]: ≥ 20 µM | Kd [24]: 0.32 µM | Kd [16, 46]: 0.81 µM | Kd [25]: 1.14 µM | Kd [26]: 1.13 µM | Kd [27]: 0.239 µM | Kd [28]: 0.0532 µM | Kd [29]: 0.0965 µM | Kd [30]: 3.41 µM | Kd [31]: ≥ 20 µM

PVPDFPYRY
Kd ([32]; source organism: Entamoeba dispar SAW760): 0.0068 µM

SFIPIFYQF
Kd [33]: ≥ 20 µM | Kd ([32]; source organism: Cryptosporidium parvum Iowa II): 0.0022 µM

TFMYVFSTF
Kd ([1]; source organism: Inovirus M13): 0.00639 µM | Kd [2, 47]: ≥ 20 µM | Kd [3, 47]: ≥ 20 µM | Kd [4, 47]: ≥ 20 µM | Kd [5, 47]: ≥ 20 µM | Kd ([7]; source organism: Inovirus M13): 0.0806 µM | Kd ([8]; source organism: Inovirus M13): 0.695 µM | Kd [9, 47]: ≥ 20 µM | Kd [10, 47]: ≥ 20 µM | Kd [11, 47]: ≥ 20 µM | Kd ([13]; source organism: Inovirus M13): 8.33 µM | Kd [14, 47]: ≥ 20 µM | Kd [15, 47]: ≥ 20 µM | Kd ([16]; source organism: Inovirus M13): 1.1 µM | Kd [34]: ≥ 20 µM

VFFKQWFEK
Kd [35]: ≥ 20 µM | Kd [20, 48]: ≥ 20 µM | Kd [2, 48]: ≥ 20 µM | Kd [3, 48]: ≥ 20 µM | Kd [36]: ≥ 20 µM | Kd [4, 48]: ≥ 20 µM | Kd [5, 48]: 0.312 µM | Kd [37]: ≥ 20 µM | Kd [8, 48]: ≥ 20 µM | Kd [17, 48]: ≥ 20 µM | Kd [9, 49]: ≥ 20 µM | Kd [10, 48]: ≥ 20 µM | Kd [11, 48]: ≥ 20 µM | Kd [12, 48]: 0.066 µM | Kd [13, 48]: ≥ 20 µM | Kd [22, 48]: ≥ 20 µM | Kd [23, 49]: ≥ 20 µM | Kd [38]: ≥ 20 µM | Kd [14, 49]: ≥ 20 µM | Kd [15, 48]: 0.163 µM | Kd [16, 48]: ≥ 20 µM
